In general, Kd refers to the free concentration of one partner at which half of the binding sites on the other are occupied at equilibrium, for simple one-to-one binding. A higher Kd goes with lower affinity.

Changes are numbered by the printed parent chain.

Among the data in paper PMC4333395 are Kd values, retold here.

For data set [1], the system named is T1, hADAR2-D (human ADAR2 deaminase domain) (human), P78563-2.
T1 sequence: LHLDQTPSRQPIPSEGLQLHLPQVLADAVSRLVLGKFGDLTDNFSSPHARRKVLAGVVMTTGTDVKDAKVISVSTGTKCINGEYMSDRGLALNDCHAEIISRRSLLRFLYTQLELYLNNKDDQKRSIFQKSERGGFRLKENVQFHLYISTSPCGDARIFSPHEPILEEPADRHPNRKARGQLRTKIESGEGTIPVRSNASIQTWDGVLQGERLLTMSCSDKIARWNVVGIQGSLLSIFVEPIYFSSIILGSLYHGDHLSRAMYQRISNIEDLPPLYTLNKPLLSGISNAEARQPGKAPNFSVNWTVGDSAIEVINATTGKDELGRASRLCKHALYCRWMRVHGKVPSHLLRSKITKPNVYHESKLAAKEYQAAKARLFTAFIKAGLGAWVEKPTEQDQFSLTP
In words: EMSA. The note with it: EMSA: 20 mM Tris-HCl pH 7-7.1, 6% glycerol, 0.5 mM DTT, 60 mM KCl, 20 mM NaCl, 0.1 mM 2-mercaptoethanol, 1.5 mM EDTA, 0.003% NP-40, 160 U/ml RNasin, 100 ug/ml …. On the technique in general: In EMSA bound probe runs differently from free probe, usually more slowly.

The test system of data set [2] is T2, hADAR2-D E488Q E488Q (human), P78563-2.
T2 sequence: T1 sequence with E190Q
Put plainly: EMSA. As to conditions: N12 of top = 8-azanebularine; EMSA: 20 mM Tris-HCl pH 7-7.1, 6% glycerol, 0.5 mM DTT, 60 mM KCl, 20 mM NaCl, 0.1 mM 2-mercaptoethanol, 1.5 mM EDTA, 0.003% NP-40, 160 U/ml RNasin, 100 ug/ml ….

In data set [1] (N12 of top = 8-azanebularine, bottom nt 16-22 2'-deoxy), “UUCCCCACAUUNGACGUUCAGU / ACUGAACCACCAAUGTGGGGAA [(f) 8-azaN]” displayed a dissociation constant Kd of 114 nM.

In data set [1] (N12 of top = 8-azanebularine), “UUCCCCACAUUNGACGUUCAGU / ACUGAACCACCAAUGUGGGGAA [(d) 8-azaN]” returned a Kd of 30 nM.

“CAUUANGGUGGGUGGAAUAGUAUAACA / UGUUAUAGUAUCCCACCUACCCUGAUG [(e) GluR B R/G 8-azaN]” had a Kd in data set [1] (N6 of top = 8-azanebularine) of more than 3200 nM.

In the case of “CCCCACAUUNGACGUUCAGUUAGUACCACCAAUGUGGGG [(c) 8-azaN]”, the Kd in data set [1] (N10 = 8-azanebularine) was 310 nM.

Turning to “UUCCCCACAUUNGACGUUCAGUUAGUACCACCAAUGUGGGGAA [(b) 8-azaN]”, in data set [1] (N12 = 8-azanebularine), the Kd came to 27 nM.

In the case of “UUCCCCACAUUNGACGUUCAGU / ACUGAACCACCAATGUGGGGAA [(h) 8-azaN]”, the Kd in data set [1] (N12 of top = 8-azanebularine, bottom nt 8-15 2'-deoxy) came out at 342 nM.

For “UUCCCCACAUUNGACGUUCAGU / ACUGAACGUCCAAUGUGGGGAA [(j) 8-azaN]”, the equilibrium dissociation constant (Kd) in data set [1] (N12 of top = 8-azanebularine) came to 10 nM.

With “UUCCCCACAUUNGACGUUCAGU / ACUGAACGACCAAUGUGGGGAA [(i) 8-azaN]”, the dissociation constant Kd in data set [2] is less than 5 nM; in data set [1] (N12 of top = 8-azanebularine), 15 nM.

For “UUCCCCACAUUNGACGUUCAGU / ACTGAACCACCAAUGUGGGGAA [(g) 8-azaN]”, the equilibrium dissociation constant (Kd) in data set [1] (N12 of top = 8-azanebularine, bottom nt 1-7 2'-deoxy) came out at 99 nM.
